Measurements as given in the supplement of paper PMC12042874.
± gives the uncertainty stated by the source.

Assay: amyloid nucleation score (Sup35N fusion, yeast selection) (log enrichment); library NNK3; higher = more nucleation; inactive = no reads after selection
In short: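 Output and input plasmid inserts were sequenced by Illumina after psi-negative yeast carrying Sup35N fused to peptides of 20 random codons had been induced 24 hours with 100 μM copper sulfate and grown 7 days at 30°C on medium lacking adenine and uracil. The nucleation score is the DiMSum log enrichment of output over input reads, centred on the mode score of non-aggregating sequences. Sequences with under 100 input reads were excluded.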

Substance	amyloid nucleation score
CKPDLMA	inactive
IYRSIRQAVLCLGLSGS	inactive
LLLSDFVSLLESPRVLHAQW	inactive
SHNVSTWRMICSWLVRPFIR	inactive
NGIVPLSHLFYIGDSVKWWG	inactive
WIAVPRVGTWVGEKMS	inactive
WCHLFLFMCTSSLFSGWDDG	inactive
WCQDATMYNPSYY	inactive
LYNRQVGKDANSFLYNRASQ	inactive
GRSSRCWGGMCRGGNLCEEF	inactive
YLPFFEWRVQGRVFEVSMYY	inactive
RYLWVLNRIGPVWCSGFRVW	inactive
FTHAIPVYDEVPNHDICDGS	inactive
SYQDMLSYNRMR	inactive
KLGGLSMRTSYIMPGRTFTS	inactive
MELCTLMCHYVVYSVVNWTY	inactive
HKEVMKNLCIFYPTDEMYRV	inactive
IPSVFKLSVWGYADSTCLRR	inactive
FNGRLVLHHRTVI	inactive
LLVLVV	inactive
CVAECPLA	inactive
DNCFRKWT	inactive
DNDLQSTKSPLWGVHQANVR	inactive

Substance	amyloid nucleation score
HEISSICTRFWANSLIRMSC	inactive
FAFAEERADLWSN	inactive
LRSFKSKICVERLRDEIILL	inactive
NYLSASVCRRRDFI	inactive
TSTELFRSGSVLRKPRMSSA	-0.255 ± 1.1
FTDFCVCGCNVFDVMFLLQS	2.67 ± 0.056
QGGNAISRYKWDCIR	inactive
INQYRPAPIQEAPLF	inactive
RCMPRCALACTRLSPGRSVV	inactive
LSECRKD	inactive
CIHTPDRCKVCNGITFDGRC	inactive
VGVFV	inactive
FKAMLD	inactive
YMQQSR	inactive
NNRFTGILPVWTMHE	inactive
FVPFERNKMIMKRICEVCVA	0.97 ± 0.11
KVICVLFKIMKLF	0.442 ± 0.18
SSKSSRLNMTVFSKTVMTIM	inactive
QGLPVSVSFVGEIYLLLF	2.32 ± 0.053
PGRTSYMKVPYCKWSEWPAK	inactive
YWFFIIIFNNIHSADGFIVS	inactive
YIAGFQFCSIIFQRRTVQLL	inactive
RRIFCLLVANDRLSMRVKCP	inactive

Substance	amyloid nucleation score
RYRLSMELT	inactive
MVCFYHTGELPDWENR	inactive
IVLWVFVLTITLN	inactive
SIGCSSGFGRCLDLG	inactive
EWFSMIVSHFNI	inactive
SFLGCFHGDY	inactive
YSNNILFAQEISQPYGHMFP	inactive
NSSCSCTCLLSGHRHTP	0.829 ± 0.24
FTPLNDDNKCVVSYEY	inactive
RVLYGTICIFVGYFLVMSCV	-0.21 ± 0.57
LGLISIAESRRLSRSDSMWW	inactive
PSGSVCGPHHIPHVDVSGIS	inactive
NLFFSVSMSAEFEW	0.078 ± 0.37
WTEGST	inactive
SALLQAIF	inactive
PGIQYPSCRKLVIIYMSCL	inactive
QRLCCPRNL	inactive
FFNKREKDVFSNHRQYGYWN	inactive
RDTGPPMFWREAVSRYR	inactive
SWNRGNLTM	inactive
DALVYVLGSCMWIGASSTSA	-0.354 ± 1.1
LLGSMVWGYSARYNFRVSQG	inactive
NVYELIDCGLTYQVYSYGSR	0.611 ± 0.24

Substance	amyloid nucleation score
KVLQPANVLRLTGFVSVRGV	inactive
FISGVYMKCIGCSS	inactive
PWLSVSRVVVGRSLDGNNCP	inactive
TFMPIGLNL	inactive
KAKPVSKCA	inactive
SFCRRNISKVFYNFNNCATA	inactive
TTCCRFYREIKFFRIS	inactive
TLSCSDFTVLGTCDAVEGIN	inactive
DLTLIWMGGAAM	0.826 ± 0.22
SWYYLQFIFMDFMINFCVME	inactive
SLLCKFIVRNPNSSLIRSAS	inactive
RLLKFASYFVKDSRYNPDCF	inactive
SLLSRFIEEGASCRCTRDG	inactive
CSMSAIMYYSARFDV	inactive
ACTRYCWHYFVNIVWCESDF	inactive
VDMSELVWIISPEVHTVSCS	inactive
TDYLFLSKWVTLCLSVWCNY	-0.084 ± 0.3
TLMYFILYYIGLYPE	inactive
TRHLMLVLSWFLHRKNISRG	inactive
CFVVNCHYFDFMDV	2.51 ± 0.06
AFYYWVDEMVSLNIRLSFYN	inactive
CNNRVVWLKHGSLSREDGVQ	inactive
TSTSIVSYGTWFSGFVLNVS	2.29 ± 0.076

Substance	amyloid nucleation score
VGQCFNELVRFNRSGISRLV	inactive
VYLRHWAIYVIESVLQGSCR	inactive
LLRGVRKE	inactive
SGGVFCYQGSPGVVY	inactive
AVVLFLGTLQLGCLGLIVQL	-0.424 ± 0.75
QYDLDWFIGRSNARDGLTDW	inactive
IMLKL	inactive
CSMFVAIIPRWSFEWPLRW	inactive
LGAKILCNWRVVHDSSCQHL	inactive
VCLKVQWDYCIRLWVGMSYD	inactive
RYDYFLFLIFSFLCTVDPMV	-0.211 ± 0.31
NNGRYLMGRRKESDLLLGQW	inactive
RMNYNAYRIFLTPISDWCNL	inactive
SYRIRCYAVNITPIAMYIIC	inactive
CIGFGCLLIVHLPIYACPWC	inactive
VLIYLDRCRNFDEKGFHNFC	0.448 ± 0.21
FDHPFICIKPRATRREAWLT	inactive
SSSESKFLYTDMWHMYWDFC	0.548 ± 0.14
AMTRCGECGHRMGKASAGMW	inactive
YFTFCDCLGQLMTRGRGCSV	inactive
CVASGCTVKACFYSMREDRY	1.53 ± 0.092
SFHSPYL	inactive
LVIIQCSNRGVSKYRLVGTD	1.82 ± 0.071

Substance	amyloid nucleation score
RIVDGFLTW	inactive
NIDVYDLMRLSVFDNKMATG	inactive
FDPYFVFHNWVLYWFRVFTF	inactive
DTVRHLISYRGLGRLHRHTM	inactive
CNYPKFHWLGRSVIKFIDFL	inactive
YYYAFEFPFSYHERSALYYC	inactive
RQCCCSLKHIVWQPLGLCRK	inactive
SKVIAPWYEEMRWWRSTGAV	inactive
FHIGLSITVT	inactive
VVLDYVSYAVIHGWEM	inactive
FSVGEFCR	inactive
RIDTRNDRSNYR	inactive
NGYMSRVHLCPKCFRLHGFR	inactive
RMFVI	inactive
KAVQAVVLSLTGWFGVERLY	inactive
NRVSGALKPLVVS	inactive
FKVNGFSATILIFKQV	inactive
FRFSGWLCWSTALPILVRKD	inactive
DSPTE	inactive
RVREPSVAVRECWCYLGDAV	inactive
ELRQFSP	inactive
TQFIELS	0.199 ± 0.32
ISKWESKSSSGLDFL	inactive

Substance	amyloid nucleation score
SHKPLDRYLIEWLGLQELLT	inactive
DNFVY	inactive
TCSYKSC	inactive
VYCPELLSRCGQVGSTCCDR	inactive
RWLPMSNVAGGQKRKMLASL	inactive
LGGCPSNDGSFYVSSSLLHV	inactive
GFYNFVFSCASGYRCTGVMG	-0.357 ± 0.59
FAILNFGMSSIIFVCLTCAN	inactive
MRHVCSCFRNDHGIDGVF	0.06 ± 0.44
GYLRNMVWRMSQYIREVCPR	inactive
ENVLVVRMDRVLY	inactive
CRKLYNISFLVLLTFFSHLF	inactive
RCYYMAMVMYTLLPLLRAET	-0.074 ± 0.32
RWSVCSCYSWERSGSRSQ	inactive
LRFVHDVLDFGASMSLRRK	0.606 ± 0.1
VDSLFSGKNYELECKFDSWI	inactive
TSNIHY	inactive
CIVMG	inactive
FTTCMNYIRRLNRKAPNKCR	inactive
HHHSATLYFTFMSVTE	inactive
